Results on one molecule are retold here after patent CN115141270A (SHENZHEN KANGMAI BIOTECHNOLOGY CO LTD, dated 2022).

The target of assay [1] is T1, SARS-CoV-2 S蛋白(ECD) (购自金斯瑞, Z03481) (SARS-CoV-2, UniProt P0DTC2 14-1213).
Assay [2] addresses T1, SARS-CoV-2 S蛋白(ECD) (购自金斯瑞, Z03481). As to the kind of experiment: ELISA, S protein (ECD) coated at 2 μg/ml, antibody titrated from 10 μg/mL.
Assay [3] addresses SARS-CoV-2 (中国新型冠状病毒, MT226610) live virus, spike glycoprotein (SARS-CoV-2). Description: cell-based or functional assay.
The target in assay [4] is T2, SARS-CoV-2 RBD结构域蛋白 (序列来自NC_045512.2, 自行表达) (SARS-CoV-2, UniProt P0DTC2 319-541).
T2 construct: domain: RBD
Description: ELISA, RBD domain protein coated at 2 μg/ml, antibody titrated from 10 μg/mL.

B1: 抗体nCoV617 (anti-coronavirus spike glycoprotein human monoclonal antibody) (antibody, V domains shown)
VH: QVQLVESGGGVVQPGRSLRLSCAASGFTFSSYAMHWVRQAPGKGLEWVALISYDGSNKYYADSVKGRFTISRDNSKNTLYLQMNSLRAEDTAVYYCARGLGLRFLEWPISSYWGQGTLVTVSS
VL: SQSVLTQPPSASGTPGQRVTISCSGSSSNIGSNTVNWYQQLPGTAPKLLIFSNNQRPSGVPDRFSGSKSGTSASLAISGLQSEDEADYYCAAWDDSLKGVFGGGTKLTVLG
notes: also called 抗S蛋白抗体; 抗冠状病毒刺突糖蛋白单克隆抗体
In the case of B1, binding in assay [1] was characterised by a dissociation constant (Kd) of 8.02 nM. Also, the EC50 in assay [2] is 2 ng/mL; in assay [4] it was 3 ng/mL. Besides, the “IC50 (neutralisation of live virus on Vero E6 cells, cytopathic effect)” value in assay [3] was found to be 2.3 ng/mL.
